The values that follow come from patent US20250034258A1 (Merck Sharp & Dohme, published 2025).

Experiment [1] has as its target T1, human PD-L1 (human, UniProt Q9NZQ7 19-290).
T1 construct: whole, on cells; also called hPD-L1; CHO-K1.hPD-L1
The experiment can be described thus: flow cytometry on CHO-K1.hPD-L1 cells, anti-FLAG detection. Here is the method: CHO-K1.hPD-L1 cells were resuspended in Stain Buffer (PBS, 2% FBS, 0.05% sodium azide) and 1E5 cells/well were transferred to a 96-well V-bottom plate and centrifuged. Cells were suspended in 100 μL/well serial diluted VHH or anti-PD-L1 antibody (atezolizumab) in Stain Buffer and incubated for 30 minutes at 4° C. VHH binding was detected by resuspending the samples subsequently in 100 μL/well mouse a-FLAG antibody (Sigma: F1804) and detected with PE-labeled goat anti-mouse IgG (Jackson ImmunoResearch: 115-116-071) as detection antibody and 5 nM TOPRO3 (Molecular Probes: T3605) as dead dye. Between each step, the cells were collected via centrifugation for 5 minutes at 200×g and washed three times with 100 μL/well Stain Buffer.
On the technique in general: Flow cytometry measures light scatter and fluorescence of single cells or particles in a stream.

For experiment [2], the target named is T2, human PD-1 (human, UniProt Q15116 25-288).
T2 construct: whole, on cells; also called hPD-1; CHO-K1.hPD-1
T2 sequence (Q15116 25-288): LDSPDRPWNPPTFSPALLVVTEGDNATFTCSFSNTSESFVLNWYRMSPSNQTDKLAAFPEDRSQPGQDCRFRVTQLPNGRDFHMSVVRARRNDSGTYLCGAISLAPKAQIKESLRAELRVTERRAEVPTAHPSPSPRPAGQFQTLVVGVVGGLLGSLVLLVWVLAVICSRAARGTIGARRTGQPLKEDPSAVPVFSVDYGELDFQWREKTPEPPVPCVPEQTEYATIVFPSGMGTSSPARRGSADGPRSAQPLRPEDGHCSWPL
In words: flow cytometry on CHO-K1.hPD-1 cells, anti-FLAG detection.

T1 sequence (Q9NZQ7 19-290): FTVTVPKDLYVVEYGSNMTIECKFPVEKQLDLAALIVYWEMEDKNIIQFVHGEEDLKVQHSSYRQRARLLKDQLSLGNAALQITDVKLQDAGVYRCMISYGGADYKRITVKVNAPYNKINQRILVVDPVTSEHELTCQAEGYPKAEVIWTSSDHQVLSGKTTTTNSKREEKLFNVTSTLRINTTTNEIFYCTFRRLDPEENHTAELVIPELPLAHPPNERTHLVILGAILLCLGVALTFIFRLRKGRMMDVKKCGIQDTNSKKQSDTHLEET

B1: α-PD-L1 VHH 2 (VHH)
VHH: EVQLVESGGGLKQAGGSLRLSCTASARASTYIAMAWFRRTPGKAREFVAAITWSGGHTTYADSMKGRFTISRDNAKNTVYLHLNALQPEDAGVYYCAANQRNTVGPSEGAYPYWGQGTLVTVSS
Consider B1, for which, in experiment [1], the binding result was “binds”.

B2: α-PD-1 VHH (VHH)
VHH: EVQLVESGGGLVQAGDSLRLSCVASGRTFSSYHMGWFRQAPGKEREFVAAIPRSGSNIGYSAFVKDRGTISRDNAKNTVYLQINNLAPDDTAVYYCAAKSAAGYYSGVVFTADYDYTYWGQGTLVTVSS
notes: also called anti-PD-1 VHH
B2: the binding result in experiment [2] was “binds”.

B3: α-PD-L1 VHH (VHH)
VHH: EVQLVESGGGLVQAGGSLSVSCAPSGRTFSNYAMGWFRQAPGKEREFVARISGGGGYTAYADSVKGRFTIARDNAKNTVYLQMNSLKPEDTAVYYCAAGSIDSRQPYDSTRRYDYWGQGTLVTVSS
notes: also called anti-PD-L1 VHH
Turning to B3, the binding result in experiment [1] was “binds”.

B4: α-PD-L1 VHH 3 (VHH)
VHH: EVQLVESGGGLVQPGGSLRLSCAASGRTLSNHAMHWFRQAPGKEREFVSAITWSDGETYYEDSVKGRFTISRDNAKDTAYLEMQSLKPEDTAVYYCAAKMGGPTSIPGLVEYWGQGTLVTVSS
In the case of B4, the binding result in experiment [1] is on record as “binds”.
